Measurements published in the supplement of paper PMC9732359.
± gives the uncertainty stated by the source.

Experiment: protein stability index of a GFP-peptide fusion (yeast GPS) (PSI 1-4); higher = more stable; sorted into four equal gates, so the index is relative within each strain
Method in brief: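 The protein stability index of a peptide was calculated by multiplying its read frequency in each gate by that gate's number and adding the products. The peptides were tiled 17-residue stretches of yeast proteins, fused downstream of GFP on a Cherry-expressing plasmid and carried in yeast as a pooled library. Mid-log cultures in leucine-free medium were sorted into four equal gates by GFP/Cherry ratio, and each gate's plasmids were PCR-amplified and Illumina-sequenced.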

Sequence	protein stability index (doa10∆)	protein stability index (pdr5∆)	protein stability index (san1∆)	protein stability index (ubr1∆)
NSDDIIDVDMDASPAPS [SRB5]	2.71 ± 0.051	2.89 ± 0.061	2.78 ± 0.056	3 ± 0.072
MVNTQQPIVTGTSVISM [PRE4]	2.1 ± 0.26	2.69 ± 0.23	1.95 ± 0.14	1.96 ± 0.2
KEAVFKSLGVKSLGGGA [FAS2]	3.26 ± 0.078	3.36 ± 0.12	3.25 ± 0.069	3.41 ± 0.092
VVSTTAVIESVVNQPTG [FAS1]	2.06 ± 0.078	1.82 ± 0.087	1.99 ± 0.11	2.1 ± 0.079
GLDQSRIPFSERKLKFS [FAS1]	1.81 ± 0.061	1.29 ± 0.059	1.11 ± 0.085	1.12 ± 0.048
TEKDDNKTNNEDLFDDY [NUT1]	2.92 ± 0.055	3.25 ± 0.053	3.01 ± 0.052	3.08 ± 0.049
HFVRDLGTIESAQAETE [DIS3]	2.16 ± 0.26	2.42 ± 0.13	2.85 ± 0.21	2.49 ± 0.095
FFDGSASSTPIPVLGKP [YOR098C/NUP1]	2.6 ± 0.044	2.94 ± 0.04	2.72 ± 0.036	2.67 ± 0.026
GQLLSVKFLVYQGVYSM [YML031W/NDC1]	1.61 ± 0.084	1.75 ± 0.14	1.48 ± 0.11	1.98 ± 0.11
VFLRNRLKYALNGREVK [RPS4A]	2.93 ± 0.099	2.82 ± 0.12	2.69 ± 0.086	3.06 ± 0.095
LNEITNSKVNKLNIETM [DSN1]	2.81 ± 0.16	2.9 ± 0.097	2.54 ± 0.077	3.08 ± 0.051
LYAITFRKGLGNPLLYD [QCR2]	1.25 ± 0.17	1.32 ± 0.25		
NNPQVVNAITVAQQQVQ [SNF5]	1.69 ± 0.049	1.78 ± 0.047	1.42 ± 0.075	1.99 ± 0.035
TKNDAGSKQILKTEAAN [BRR2]	2.85 ± 0.055	2.95 ± 0.054	2.93 ± 0.039	3.04 ± 0.055
GCIKIYSSRVDSVTTET [BRN1]	2.43 ± 0.14	2.52 ± 0.13	2.35 ± 0.21	2.12 ± 0.17
SENAPSASSKEFNFTNL [YAR002W/NUP60]	2.83 ± 0.052	2.94 ± 0.062	2.88 ± 0.051	2.99 ± 0.056
KLQFETDRLSTTQRRYE [SMC1]	3.13 ± 0.094	3.3 ± 0.058	3.12 ± 0.086	3.12 ± 0.083
QWMVSLFNNHLNGILAD [SNF2]	1.39 ± 0.12	1.46 ± 0.11	1.37 ± 0.14	1.2 ± 0.059
IPYSRNAPAWFKLSSES [RPS13]	1.93 ± 0.058	1.92 ± 0.045	2.12 ± 0.074	2.44 ± 0.052
IYINKSVPTNSADAPNP [RET1]	3.19 ± 0.08	3.2 ± 0.061	3.31 ± 0.049	3.29 ± 0.052
LKRFPKMSVTCNAQPIT [BRR2]	2.33 ± 0.066	2.23 ± 0.06	2.02 ± 0.11	1.9 ± 0.037
FNKYADPTLTTTTSFTT [RPN4]	2.35 ± 0.035	2.57 ± 0.042	2.26 ± 0.04	2.48 ± 0.029
PEMSNLYRLSTPLRDEV [PRP8]	2.76 ± 0.067	2.76 ± 0.047	2.56 ± 0.044	2.75 ± 0.06
LKTRDWIVVLPWFWLLP [POP1]	1.51 ± 0.12		1.5 ± 0.23	2.02 ± 0.1
KMFIQRILAMCVKNHGQ [YCS4]	1.69 ± 0.062	2.1 ± 0.055	2.22 ± 0.071	1.92 ± 0.057

Sequence	protein stability index (doa10∆)	protein stability index (pdr5∆)	protein stability index (san1∆)	protein stability index (ubr1∆)
KSNSTGNISSSTVKKKD [REC8]	2.96 ± 0.058	2.96 ± 0.058	2.83 ± 0.039	3.02 ± 0.049
LLSDVNQNQRNVNETMS [SMC3]	3.06 ± 0.12	2.89 ± 0.054	3.04 ± 0.062	3.01 ± 0.082
HKVQTKLTRELEKKFPD [RPS7B]	2.82 ± 0.16	3.07 ± 0.093	3.1 ± 0.058	3.07 ± 0.055
SLNEVGTLKVILNLYSS [YML103C/NUP188]	1.93 ± 0.12	2.11 ± 0.29		2.4 ± 0.11
TLNPDLFLYKELVKAHL [RPC82]	2.71 ± 0.079	2.87 ± 0.074	2.95 ± 0.053	2.42 ± 0.055
REKNALKRLAWQYIVID [ISW2]	2.1 ± 0.099	1.74 ± 0.14	1.76 ± 0.12	2.03 ± 0.082
NTNPSPLKTQTKNGTPN [GAL11]	2.91 ± 0.059	2.9 ± 0.05	2.58 ± 0.049	2.94 ± 0.04
NGMFCQVPSSLIVRAKN [RRP4]	2.07 ± 0.064	2.5 ± 0.12	2.31 ± 0.092	2.27 ± 0.082
LLERYIGNLITRQFEGR [PRP8]	2.59 ± 0.11	2.63 ± 0.18	2.43 ± 0.15	1.99 ± 0.071
FASIPVSNSISRLGEEN [SNU114]	2.31 ± 0.058	2.63 ± 0.051	1.81 ± 0.081	2.48 ± 0.059
RSISEPSINLDPDNTSF [ESC2]	2.9 ± 0.074	3 ± 0.057	3.07 ± 0.058	3.165 ± 0.031
IFLAERRILPKPSRTSR [RPS7A]		3.15 ± 0.21	2.8 ± 0.14	2.89 ± 0.13
AEKSYLYDSLASTPSIR [RRP42]	2.57 ± 0.15	2.33 ± 0.1	2.46 ± 0.19	3.2 ± 0.11
IWFPEDFISPELIIDKV [MED1]	2.68 ± 0.068	2.66 ± 0.069	3.01 ± 0.075	2.94 ± 0.044
GTFTADYSKPNLPPHYA [SSN2]	2.23 ± 0.055	2.28 ± 0.049	2.16 ± 0.068	2.15 ± 0.039
SKYLIKQIDIPNFNVEI [ECM29]	1.57 ± 0.069	2.01 ± 0.091	2.57 ± 0.072	2.39 ± 0.059
KERKLRENIAMLKRFFP [SMC1]	2.38 ± 0.18	2.52 ± 0.14	2.65 ± 0.23	2.59 ± 0.16
GAGSIFTSHTRLRQGAA [RPL2A]	3.05 ± 0.1	3.2 ± 0.088	3.17 ± 0.049	3.25 ± 0.072
AGNTTTGGGLFGSKPTG [YGL172W/NUP49]	2.4 ± 0.084	2.18 ± 0.17	2.64 ± 0.11	2.21 ± 0.097
FSISYKPPTQKTDTKVS [SRP21]	2.24 ± 0.037	2.15 ± 0.042	1.98 ± 0.059	2.11 ± 0.033
RAVANRTDATFIRVIGS [RPT1]	3.22 ± 0.1	3.26 ± 0.069	3.17 ± 0.082	3.09 ± 0.062
NLGEYYAQIGDKDNAEK [RPN7]	1.92 ± 0.056	2.05 ± 0.075	2.49 ± 0.087	2.47 ± 0.053
ISLLKNRRKQSFVLNKN [RPN4]	3.52 ± 0.25	3.06 ± 0.25	3.04 ± 0.15	3.21 ± 0.14
VYKIYNHVMPLKPVDKL [SIN4]	1.84 ± 0.064	1.97 ± 0.072	1.63 ± 0.11	1.62 ± 0.051
RKWAARAASAKIESSVE [RPS8A]	3.21 ± 0.087	3.2 ± 0.062	2.74 ± 0.056	3.4 ± 0.054
